# Test results as given in patent US20090136547A1, “ZWITTERIONIZATION OF CAPSULAR SACCHARIDES” (NOVARTIS VACCINES AND DIAGNOSTICS SRL, priority 2005, published 2009).
# Ends that are not written are not given here. * marks the point of attachment. Palmitoyl = CCCCCCCCCCCCCCCC(=O)*
# Molecular target: T1, TLR2 receptor (Homo sapiens, UniProt O60603)
# T1 construct: endogenous in cells; host or cells: purified monocytes
# Experiment: Monocyte activation (TNFα, CD80/MHC-II) in absence or presence of anti-TLR2 antibody
# Assay type: cell-based
# Conditions: FIG. 29 and FIG. 30
# T1 sequence (O60603 21-784): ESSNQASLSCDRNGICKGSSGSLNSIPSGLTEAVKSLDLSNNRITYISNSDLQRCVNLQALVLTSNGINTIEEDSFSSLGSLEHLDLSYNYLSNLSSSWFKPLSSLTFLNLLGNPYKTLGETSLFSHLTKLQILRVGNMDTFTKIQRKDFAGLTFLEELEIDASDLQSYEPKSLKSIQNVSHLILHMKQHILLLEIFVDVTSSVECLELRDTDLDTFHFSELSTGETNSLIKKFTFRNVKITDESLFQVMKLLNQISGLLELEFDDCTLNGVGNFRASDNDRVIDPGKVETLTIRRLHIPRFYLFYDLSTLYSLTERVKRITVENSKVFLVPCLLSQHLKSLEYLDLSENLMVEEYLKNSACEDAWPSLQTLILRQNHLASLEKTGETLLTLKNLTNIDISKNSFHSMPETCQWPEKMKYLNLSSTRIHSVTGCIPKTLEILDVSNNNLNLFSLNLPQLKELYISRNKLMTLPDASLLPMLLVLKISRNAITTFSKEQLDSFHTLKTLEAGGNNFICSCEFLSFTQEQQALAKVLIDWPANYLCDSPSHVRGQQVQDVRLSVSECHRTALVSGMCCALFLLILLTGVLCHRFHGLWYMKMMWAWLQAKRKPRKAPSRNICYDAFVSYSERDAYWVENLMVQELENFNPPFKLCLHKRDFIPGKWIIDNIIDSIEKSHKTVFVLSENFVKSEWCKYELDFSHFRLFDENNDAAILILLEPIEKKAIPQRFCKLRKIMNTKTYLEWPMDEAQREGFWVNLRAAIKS
substance,measurement,value
"N-palmitoyl-S-[2,3-bis(palmitoyloxy)-(2R,S)-propyl]-(R)-cysteinyl-seryl-(lysyl)(3)-lysine (Palmitoyl-C(2,3‑bis(palmitoyloxy)‑(2R,S)‑propyl)SKKKK) [PAMcsk, synthetic lipopeptide positive control]","effect of anti-TLR2 antibody on activation (TNFα assay, CD80/MHC-II assay)",able to block activation
